In publication PMC12258621:

Experiments:
[1] = target: dSpRY (catalytically inactive SpRY Cas9) (Streptococcus pyogenes) (UniProt Q99ZW2); test: EMSA; details: 40x plasmid competitor; 100 nM RNP, 10 nM DNA; EMSA: 20 mM HEPES pH 7.5, 100 mM KCl, 10 mM MgCl2, 1% glycerol, 0.5 mM DTT (37 C for plasmid EMSA); footprinting: 20 mM Tris pH 7.9, 24 mM KCl, 5 mM MgCl2 …
[2] = target: dSpRY (catalytically inactive SpRY Cas9) (Streptococcus pyogenes) (UniProt Q99ZW2); test: single-molecule AuRBT (baseline twist shift, Langmuir fit); details: effective Kd for off-target binding on the tether; RNP with sgRNA3; EMSA: 20 mM HEPES pH 7.5, 100 mM KCl, 10 mM MgCl2, 1% glycerol, 0.5 mM DTT (37 C for plasmid EMSA); footprinting: 20 mM Tris pH 7.9, 24 mM KCl, 5 mM MgCl2 …
[3] = target: dSpRY (catalytically inactive SpRY Cas9) (Streptococcus pyogenes) (UniProt Q99ZW2); test: single-molecule AuRBT (hyperbolic fit of kC-I vs [RNP]); details: EMSA: 20 mM HEPES pH 7.5, 100 mM KCl, 10 mM MgCl2, 1% glycerol, 0.5 mM DTT (37 C for plasmid EMSA); footprinting: 20 mM Tris pH 7.9, 24 mM KCl, 5 mM MgCl2 …
[4] = target: dCas9 (catalytically inactive SpyCas9) D10A;H840A (Streptococcus pyogenes) (UniProt Q99ZW2); test: single-molecule AuRBT (kC-I linear, no saturation); details: initial binding Kd,init; >1 uM proposed from literature; R-loop forms; EMSA: 20 mM HEPES pH 7.5, 100 mM KCl, 10 mM MgCl2, 1% glycerol, 0.5 mM DTT (37 C for plasmid EMSA); footprinting: 20 mM Tris pH 7.9, 24 mM KCl, 5 mM MgCl2 …

Row | Sequence | binding signal [1] | Kd [2] | Kd [3] | Kd [4]
1 | GGGACGCAUAAAGAUGAGACAAGUUUUAGAGCUAGAAAUAGCAAGUUAAAAUAAGGCUAGUCCGUUAUCAACUUGAAAAAGUGGCACCGAGUCGGUGCUUCG / CGCTCATGCTGACGCATAAAGATGAGAGTTTGGCGATTACAGTACGTGCG / CGCACGTACTGTAATCGCCATTGTCTCATCTTTATGCGTCAGCATGAGCG [sgRNA2 + target duplex with MM bubble next to PAM (3-20 bp)] | 29 % bound | – | – | –
2 | GGGACGCAUAAAGAUGAGACAAGUUUUAGAGCUAGAAAUAGCAAGUUAAAAUAAGGCUAGUCCGUUAUCAACUUGAAAAAGUGGCACCGAGUCGGUGCUUCG / CGCTCATGCTGACGCATAAAGATGAGACAATGGCGATTACAGTACGTGCG / CGCACGTACTGTAATCGCCATTGTCTCATCTTTATGCGTCAGCATGAGCG [sgRNA2 + matched target duplex (0-20 bp)] | 2 % bound | – | – | –
3 | GGCUGCGUAUUUCUACUCUGUUGUUUUAGAGCUAGAAAUAGCAAGUUAAAAUAAGGCUAGUCCGUUAUCAACUUGAAAAAGUGGCACCGAGUCGGUGCUUCG / GTCATTGTCGCGAAGTGCAGCGAGATCGCGTTTGTACTCCAAACAGAGTAGAAATACGCAGAGCAGCGATTTCTCGTGTGCAGACA / CGAAGCACCGACTCGGTGCCACTTTTTCAAGTTGATAACGGACTAGCCTTATTTTAACTTGCTATTTCTAGCTCTAAAACAACAGAGTAGAAATACGCAGCC [sgRNA3 + Target1 NGG DNA tether] | – | 15 nM | 10 nM | > 80 nM
